Results from the nanobody polyreactivity screen of Harvey et al. (2022).

Assay: yeast display, Sf9 membrane polyspecificity reagent, FACS + sequencing; frameworks hold sequencing errors
Outline: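 A synthetic nanobody library was expressed on Saccharomyces cerevisiae BJ5465 by galactose induction for 36–48 hours. The library was stained for 1 hour at 4 °C with 10% biotinylated, detergent-solubilized Sf9 membrane reagent and enriched with streptavidin microbeads before FACS. Low and high (top ~1%) gates were set on anti-HA fluorescence for expression and streptavidin fluorescence for reagent binding, and each polyreactivity label reflects the gate of origin.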

QVQLEESGGGLVQAGGSLRLSCAASGSIFVHNDMGWYRQAPGKERELVATIDSAGGTYYADSVKGRFTISRDNAKNTVYLQMNSLKPEDTAVYYCAAYGPYVLSIYDYWGQGTQVTVSS
polyreactivity (PSR sort gate): low polyreactivity

QVQLEESGGGLVQAGGSLRLSCAASGSIFVRNAMGWYRQAPGKERELVASISRRGGSTYYADSVKGRFTISRDNAKNTVYLQMISLKPEDTAVYYCAARNQIVPYGTYNYWGQGTQVTVSS
polyreactivity (PSR sort gate): high polyreactivity

QVQLEESGGGLVQAGGSLRLSCAASGSIFVVYAMGWSRQAPGKERELVASIRTGGSTNYADSEKGRFTISRDNAKNNVYLQMNSLKPEDTAVYYCAAASWNSNRHYYVARYYYWGQGTQVTVSS
polyreactivity (PSR sort gate): high polyreactivity

QVQLEESGGGLVQAGGSLRLSCAASGSIFVYYARGWYRQAPGKERELVATISRRGGSTYYADSVKGRFTISRDNAKNTVYLQMTSLKPEDTAVDYCNAAPSPVGSARSSLTRYTGMDYWGQGTQVSVSS
polyreactivity (PSR sort gate): high polyreactivity

QVQLEESGGGLVQAGGSLRLSCAASGSIFYSNAMGWYRQAPGKERELVATIRSGGTTYYADSVKGRFTISRDNAKNTVYLQMNSLKPEDTAVYYCAKRYGVKYWGQGTQVTVES
polyreactivity (PSR sort gate): high polyreactivity

QVQLEESGGGLVQAGGSLRLSCAASGSIIYAYAMGWSRQAPGKERELVDGIRDGGSTYYADSVKWRFTISRDNAKNTVYLQMNSLKPADTAVYYCAAGPRIRDDYWGQGTQVTVSS
polyreactivity (PSR sort gate): low polyreactivity

QVQLEESGGGLVQAGGSLRLSCAASGSILVAYAMGWYRQAPGKERELVAAISSVGNTYYADSVKGRFTISRDNAKNTVYLQMNSLKPEDTAVYYCNAVYRVWYAEWSTVGSPHDYWGQGTQVTVSS
polyreactivity (PSR sort gate): low polyreactivity

QVQLEESGGGLVQAGGSLRLSCAASGSILYVYAMGWSRQAPGKERELVAAMTRSGDTTSYADSVKGRFTISRDFAKNTVYLQLNSLKPEDTAVYYCDAAERRYGRGYGYWGQCTQVTVSS
polyreactivity (PSR sort gate): high polyreactivity

QVQLEESGGGLVQAGGSLRLSCAASGSNFSRYAMGWYRQAPGKERELVAAISWAGNTYYADSVKGRFTISRDNAKNTVYLQMNSLKPEDTAVYYCNADRVRYLFTRYDYWGQGTQVTVSS
polyreactivity (PSR sort gate): high polyreactivity

QVQLEESGGGLVQAGGSLRLSCAASGSTFHTYAMGWYRQAPGKERELVASISYGVTTYYADSVKGRFTISRDNAKNTVYLQMNSLTPEDTAVYYCAREGYNWVYLSYGYWGQGTQVTVSS
polyreactivity (PSR sort gate): low polyreactivity

QVQLEESGGGLVQAGGSLRLSCAASGSTFINNAMGWYRQPPGKERELVAAISSGGSTYYADSVKGRFTISRDNAKNTVYLEMNSLKPEDTAVYYCAAEFVETKYPEMDYWGQGTQVTVSS
polyreactivity (PSR sort gate): low polyreactivity

QVQLEESGGGLVQAGGSLRLSCAASGSTFLQYPMGWYRQATGKQRELVAAISWRAGSTYYADSVKGRFTISRDTAKNTVYLQMNTLKPEDTAVNYCDADGNRWRYELDDYDYWGQGTQVTGSS
polyreactivity (PSR sort gate): low polyreactivity

QVQLEESGGGLVQAGGSLRLSCAASGSTFPFYAMGWYRQAPGKERELVAAISRGGSTNYADSVKGRFTISRDNAKNTVYLQMNSLKPEDTAVYYCNADVFWWYPYDYWGQGTQVTVSS
polyreactivity (PSR sort gate): high polyreactivity

QVQLEESGGGLVQAGGSLRLSCAASGSTFRLYAMGWYRQAPGKERELVATITNGGNTYYADSVKGRFTISRDNAKNTVYLQMNSLKPEDTAVYYCAKRLSRRYDYWGQGTQGTVSS
polyreactivity (PSR sort gate): low polyreactivity

QVQLEESGGGLVQAGGSLRLSCAASGSTFSGYAMGWYIPAPGKERELVATIRRGGSTYADSVKGRFTISRDNAKNTVYLQMNSLKPEDTAVYYCAADAYVSSQPMDYWGQGTQVTVSS
polyreactivity (PSR sort gate): high polyreactivity

QVQLEESGGGLVQAGGSLRLSCAASGSTFVGNAMGWYRQAPGKERELVAAISFSGGSTYYADSVKGRFTISRDNAKNTVYLQMNSLKPEDTAVYYCAKKTRYRSRGMNYWGQGTQVTVSS
polyreactivity (PSR sort gate): high polyreactivity

QVQLEESGGGLVQAGGSLRLSCAASGSTFYLYDMGWYRQAPGKERELVAVISWSGGSTSYADSVKGRFTISRDNAKNTIYLQMNSLKPEDTAVYYCNTDFYHWGQGTQVTVSS
polyreactivity (PSR sort gate): low polyreactivity

QVQLEESGGGLVQAGGSLRLSCAASGSTIPPYAMGWYRQAPRKERELVAAITSGGSTYYADSVKGRFTISRDNAKNTVYLQMNSLKPEDTAVYYCAASWDPWEYDYWGQGTQVTVSS
polyreactivity (PSR sort gate): low polyreactivity

QVQLEESGGGLVQAGGSLRLSCAASGSTLIYNAMGWYRPAPGKERELVAAISASGTRTYYADSVKGRFTISRDNAKNTVYLQMNSLKPEDTAVYYCNALRRAPRAEYYYWGQGTQVTVSS
polyreactivity (PSR sort gate): high polyreactivity

QVQLEESGGGLVQAGGSLRLSCAASVFPYYAMRWYRQATGKERELVAAITWSGADTYYADSVKGRFTISRDNAKNTVYLQMNSLKPEDTAVYYCAAEYSPIRDYEYWGQGTQVTVSS
polyreactivity (PSR sort gate): low polyreactivity

QVQLEESGGGLVQAGGSLRLSCAASYAMGWYRQAPGKERELVATITRTDRTNYADSVKGRFTISRDNAKNTVYLQMNSLKPEDTAVYYCNKVDWSAPGDSPKYGYWGQGTQVTVSS
polyreactivity (PSR sort gate): low polyreactivity

QVQLEESGGGLVQAGGSLRLSCAATGRIFSYAMGWYRQAPGKETELVAGISRSGGSTYYADSVKGRFTISSDNAKITVYLQMNSVKPEDTAVYYCARYDRGGRHYYYWGQGTQVTVSS
polyreactivity (PSR sort gate): high polyreactivity

QVQLEESGGGLVQAGGSLRLSCAATGSLFYTYSMGWYRQAPGKERELGASIRSDGITNYADSVKGRFTISRDNAKNTVYLQMNSLKPEDTAVYYCAARIIWSTNYYYWSGYNSWGQGTQVTVSS
polyreactivity (PSR sort gate): high polyreactivity

QVQLEESGGGLVQAGGSLRLSCAAYGSIFSPYAMGWYRHAPGKERELVAAISGRGTSTYYADSVKGRFTISRDNAKNTVDLQMNTLKPEDTEVYYCAAVSYGRSGYDYWGQGTQVTVSS
polyreactivity (PSR sort gate): high polyreactivity

QVQLEESGGGLVQAGGSLRLSCADSGSTFYTNAMGWYRQAPGKERELVAAISASVGSTYYADSVKGRFTISRDNAKNTVYLQMNILKPEDTAVYYCAAYVWDSRRYDYWGQGTQVTVSS
polyreactivity (PSR sort gate): low polyreactivity

QVQLEESGGGLVQAGGSLRLSCAGSGGIFDVYAIGWYRPAPGKERELVAAITASGGSTYYADSVQGRFTISRDNAKNTVYFQMNSLKPEDTAGYYCAVQGFRYHSREYDYWGQGTQVTVSS
polyreactivity (PSR sort gate): low polyreactivity

QVQLEESGGGLVQAGGSLRLSCAPSGFIFAWYAMGCYRQAPGKERELVATISSSGARTYYADSVKGRFTISRDNAKNTVYLQMNSLKPEDTAVYYCAVGSVGRLKFYYWGQGTQVTVSS
polyreactivity (PSR sort gate): high polyreactivity

QVQLEESGGGLVQAGGSLRLSCAPSGRIYNRNAMGWYRQAPGKERELVASISSGGRTNYADSVKGRFTISRDNAKTTVYLQMNSLKPEDTAVFYCAGNSPRFLLDYWGQGTQVTVSS
polyreactivity (PSR sort gate): low polyreactivity

QVQLEESGGGLVQAGGSLRLSCASSGSTFATYAMGWDRQAPGKERELVAGISKRGGRTYYADSLKGRFTISRDNAKNTVYFQMNSLKPEDTAVYYCARYSPYYRVKDYDSWGQGTQVTVSS
polyreactivity (PSR sort gate): high polyreactivity

QVQLEESGGGLVQAGGSLRLSCASSGYIFATYAMGWYRQAPGKERELVAAITSTGSTYYADSVKGRFTISRDNAKNTVYLQMNSLKPEDTAVYYCAAVSGYRARYYLYYYWGQGTQVTVSS
polyreactivity (PSR sort gate): high polyreactivity

QVQLEESGGGLVQAGGSLRLSCPASGRTSYGNTMGTYRQAPGKERELVATISGGGSTNYADSVKGRFTISRDNAKNTVYLQMNSLKPEDTAVYYCAARRYPFPGYRYYFWGQGTQVTVSS
polyreactivity (PSR sort gate): high polyreactivity

QVQLEESGGGLVQAGGSLRLSCSASGLILHGYAMGWYRQAPGKERELVAAITRSGGRTYYADSVKGRFTISRDNAKYTVYLQMNSLKPEDTAVYYCAALGWSGRYRYDYWGQGTQVTVSS
polyreactivity (PSR sort gate): high polyreactivity
